# Assay results from PMC9559407, “Enzyme linked oligonucleotide assay for the sensitive detection of SARS-CoV-2 variants”.
# Biological target: SARS-CoV-2 spike RBD (called RBD S glycoprotein) (SARS-CoV-2 (2019-nCoV), UniProt P0DTC2 319-541)
# Test: direct ELONA
# Details: protein: commercial; label: 5'-biotin
binder,measurement,value
CoV2-RBD-1C (ssDNA) DNA: CAGCACCGACCTTGTGCTTTGGGAGTGCTGGTCCAAGGGCGTTAATGGACA,binding result,binds
